The values below come from publication PMC1865076.

For data set [1], the target named is T1, His6-Ovol1 (UniProt Q9WTJ2 1-267). As to the kind of experiment: competition.
The target of the next data set is c-Myb R2R3 (chicken, UniProt P01103 87-193). The experiment in a line: EMSA. (A gel shift assay detects complexes by their altered migration in electrophoresis.)
Data set [2] concerns the target T1, His6-Ovol1. The experiment in a line: EMSA.

T1 sequence (Q9WTJ2 whole entry): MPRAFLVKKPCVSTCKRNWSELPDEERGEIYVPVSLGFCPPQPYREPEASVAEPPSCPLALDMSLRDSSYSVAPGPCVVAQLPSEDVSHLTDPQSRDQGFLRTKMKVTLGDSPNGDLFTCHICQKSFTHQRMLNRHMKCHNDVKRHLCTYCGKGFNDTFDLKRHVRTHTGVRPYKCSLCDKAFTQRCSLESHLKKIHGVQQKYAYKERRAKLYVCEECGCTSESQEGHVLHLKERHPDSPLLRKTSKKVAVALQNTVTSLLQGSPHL
Chain of c-Myb R2R3 (P01103 87-193): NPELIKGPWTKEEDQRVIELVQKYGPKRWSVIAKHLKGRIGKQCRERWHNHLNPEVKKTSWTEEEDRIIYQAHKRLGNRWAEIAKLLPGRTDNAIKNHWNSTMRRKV

B1: mim-A (dsDNA)
DNA 1: AGCGCTAAAAAACCGTTATAATGTGCAGAT
DNA 2: ATCTGCACATTATAACGGTTTTTTAGCGCT
As for B1, the binding result with His6-Ovol1 [1] and in the data set with c-Myb R2R3 was “binds” each time.

B2: mim-C (dsDNA)
DNA 1: GTTGATTTCCATCTGTTATTTGAGCTAAG
DNA 2: CTTAGCTCAAATAACAGATGGAAATCAAC
Consider B2, for which the binding result with His6-Ovol1 [2] is recorded as “no binding”.
